Test: yeast display, Sf9 membrane polyspecificity reagent, FACS + sequencing; frameworks hold sequencing errors
Procedure, shortened: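 Galactose induction of a Saccharomyces cerevisiae BJ5465 synthetic nanobody display library ran 36–48 hours. The cells were then stained for 1 hour at 4 °C with 10% biotinylated, detergent-solubilized Sf9 membrane reagent, pulled down on streptavidin microbeads and FACS-sorted into low and high (top ~1%) gates on expression and reagent-binding fluorescence. Labels for polyreactivity follow the gate of origin.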

Sequence | polyreactivity (PSR sort gate)
QVQLVESGGGLVQAGGSLRLSCAASGSIFEPNAMGWYRQAPGKERELVAAISSGGSTYYADSVKGRFTISRDNAKNTVYLQMNSLKPEDTAVYYCAAYYHGYYSWGQGTQVTVSS | high polyreactivity
QVQLVESGGGLVQAGGSLRLSCAASGSIFEPYTMGWYRQAPGKERELVAAITGSGGSTFYADSVKGRFTISRDNAKNTVYLQMNSLKPEDTAVYYCNAFAYPYTDVDYWGQGTQVTVSS | low polyreactivity
QVQLVESGGGLVQAGGSLRLSCAASGSIFEPYVMGWYRQAPGKERELVAAIRQTGGSTYYADSVKGRFTISRDNAKNTVYLQMNSLKPEDTAVYYCAAVYLYYSRSDLYDYWGQGTQVTVSS | low polyreactivity
QVQLVESGGGLVQAGGSLRLSCAASGSIFERYAMGWYRQAPGKERELVATISKSGDSTYYADSVKGRFTISRDNAKNTVYLQMNSQKPEDTAVYYCAADGWSETSDATFYYWGQGTQVTVSS | low polyreactivity
QVQLVESGGGLVQAGGSLRLSCAASGSIFESNDMGWYRQAPGKERELVAAYADSVKGRFTISRDNAKNTVYLQMNSLKPEDTAVYYCAKSLSLYVVPLYEYWGQGTQVTVSS | low polyreactivity
QVQLVESGGGLVQAGGSLRLSCAASGSIFESYAMGWYRQAPGKERELVADITYDGGITYYADSVKGRFTISRDNAKNTVYLQMNSLKPEDTADYYCNADSVQYTPPESDYWGQGTQVTVSS | low polyreactivity
QVQLVESGGGLVQAGGSLRLSCAASGSIFESYAMGWYRQAPGKERELVADITYDGGITYYADSVKGRFTISRDNAKNTVYLQMNSLKPEDTAVYYCATEYRYWQSDYSTYFPYDYWGQGTQVTVSS | low polyreactivity
QVQLVESGGGLVQAGGSLRLSCAASGSIFETYDMGWYRQAPGKERELVAAITLSGGSTYYADSVKGRFTISRDNAKNTVYLQMNSLKPEDTAVYYCAADDSGVKVWEGDYWGQGTQVTVSS | low polyreactivity
QVQLVESGGGLVQAGGSLRLSCAASGSIFETYVMGWYRQAPGKERELVAAINSGGSTNYADSVKGRFTISRDNAKNTVYLQMNSLKPEDTAVYYCAAEWRGDRYRLYVVSWWYDYWGQGTQVTVSS | low polyreactivity
QVQLVESGGGLVQAGGSLRLSCAASGSIFEVNAMGWYRQAPGKERELVAAISCSGGSTYYADSVKGRFTISRDNAKNTVYLQMNSLKPEDTAVYYCAADWRQGLWYGYYYWGQGTQVTVSS | low polyreactivity
QVQLVESGGGLVQAGGSLRLSCAASGSIFEWYAMGWYRQAPGKERELVADITNNGGSTYYADSVKGRFTISRDNAKNTVYLQMNSLKPEDTAVYYCAADYFDQVPDYYYASEYGYWGQGTQVTVSS | low polyreactivity
QVQLVESGGGLVQAGGSLRLSCAASGSIFEYNTMGWYRQAPGKERELVATISWSGDSTYYADSVKGRFTISRDNAKNTVYLQMNSLKPEDTAVYYCAAQRGAPVDGKSDYWGQGTQVIVSS | low polyreactivity
QVQLVESGGGLVQAGGSLRLSCAASGSIFEYYAMGWYRQAPGKERELVAAISSGGPTYYADSVKGRFTISRDNAKNTVYLQMNSLKPEDTAVYYCNADLWYPDYDYWGQGTQLTVSS | low polyreactivity
QVQLVESGGGLVQAGGSLRLSCAASGSIFEYYTMGWYIPAPGKERECVAAITFTGDSTYYADSVKGRFTISRDNAKNTVFLQMNSLKPEDTAVYYCNADSVTYDGEYDYWGQGTQVTVSS | low polyreactivity
QVQLVESGGGLVQAGGSLRLSCAASGSIFFARYAMGWYRQAPGKERELVAAITRATSTTYADSVKGRFTISRDNAKNTVYLQMNSLKPEDTAVYYCAATKIGGGSFRPYYYWGQGTQVTVSS | high polyreactivity
QVQLVESGGGLVQAGGSLRLSCAASGSIFFDGNAMGWYRQAPGKERELVAAISVSGGSTYYADSVKGRFTISRDYAKTTVYLQINRLKPEDTAVYDCAKYPSKSYVPGDYWGQGTQVTVSS | low polyreactivity
QVQLVESGGGLVQAGGSLRLSCAASGSIFFFNAMGWSRQAPGKERELVATISDTTDTDYADSVKGRFTISRENGKNTVYLQMNSLKPEDTAVYYCAKVKAWTEYYYWGQGTQVTVSS | low polyreactivity
QVQLVESGGGLVQAGGSLRLSCAASGSIFFFYVMGWYRPAPGKERELVAAITYSGGSTFYADSVKGRFTISRDNAKNTVYLQMNSLKPEDTAVYYCAADYGQWTPLDPYNHWGQGTQVTVSS | low polyreactivity
QVQLVESGGGLVQAGGSLRLSCAASGSIFFFYVMGWYRQAPGKERELVAAINNGGSTNYADSVKGRFTISRDNAKNTVYLQMNSLKPEDTAVYYCAADSITSKNQGLDYDYWGQGTQVTVSS | low polyreactivity
QVQLVESGGGLVQAGGSLRLSCAASGSIFFGYAMGWYRPAPGKERELVAAISSDGSTYYADSVKGRFTISRDNAKNTVYLQMNSLKPEDTAVYYCNAEQAIFYWYATVTYDYWGQGTQVTVSS | low polyreactivity
QVQLVESGGGLVQAGGSLRLSCAASGSIFFIYAMGWYRQAPGTERELVATITSGGSTYYADSVKGRFTISRDNAKNTVYLQMNSLKPEDTAVYYCAVDEYYAFDYWGQGTQVTVSS | low polyreactivity
QVQLVESGGGLVQAGGSLRLSCAASGSIFFKYAMGWYRQAPGKERELVASITRGGRTYYADSVKGRFTISRDNAKNTVYLQMNSLKPEDTAVYYCNKRTVWKHDYWGQGTQVTVSS | high polyreactivity

Sequence | polyreactivity (PSR sort gate)
QVQLVESGGGLVQAGGSLRLSCAASGSIFFLYAMGWSRQAPGKEWELVAAISRTGSTYADSVKGRFTISRDNAKNTVYLQMNSLKPEDTAVYYCADEYRYYWYGTMNYWGQGTQVTVSS | low polyreactivity
QVQLVESGGGLVQAGGSLRLSCAASGSIFFLYAMGWYRQAPGKEREFVAAITGTADSTYYADSVKGRFTISRDDAKNTVYLQMNSLKPEDTAVYYCATDYWSSVKLDDYWGQGTQVTVSS | low polyreactivity
QVQLVESGGGLVQAGGSLRLSCAASGSIFFRYAMGWYRQAPGKERELVAGITYSSGSSTYADSVKGRFTISRHNAKNTVYLQMNSLKPEDTAVYYCAAAYRFPGNRYDYWGQGTQVTVSS | low polyreactivity
QVQLVESGGGLVQAGGSLRLSCAASGSIFFRYTMGWYRQAPGKERELVAAITGSGGSTYYADSVKGRFTISRDNAKNTVYLQMNSLKPEDTAVYYCARPGWGRYEYWGQGTQVTVSS | high polyreactivity
QVQLVESGGGLVQAGGSLRLSCAASGSIFFSNAMGGYRQAPGKERELVAAITSTGGSTYYADSVKGRFTISRDNAKNTGYLQMNSLKPEDTAVYYCAAASRRGYYYWGQGTQVTVSS | high polyreactivity
QVQLVESGGGLVQAGGSLRLSCAASGSIFFSSAMGWSRQEPGKERELVAAISSGASTYYADSVKGRFTISRDNAKNTVYLQMNSLKPEDTAVYYCAARGYRLVPVDFYYWGQGTQVTVSS | low polyreactivity
QVQLVESGGGLVQAGGSLRLSCAASGSIFFSYAMGWYRPAPGKERELVAGINWSGGSTYADSVKGRFTLSRDNAKNTVYLQINSLKPEDTAVYYCAAKYYSERSRYHYWGQGTQVTVSS | low polyreactivity
QVQLVESGGGLVQAGGSLRLSCAASGSIFFTYAMGWYRQAPGKERELVAGISWGGGSTHYADSVKGRFTISRDNAKNTVYLQMNSLKPEDTAVYYCARVWPYPSTEYGYTGRLYDYWGQGTQVTVSS | low polyreactivity
QVQLVESGGGLVQAGGSLRLSCAASGSIFFYNVMGWYRQAPGKERELVASISWRGASTYYADSVKGRFTISRDNAKNTVYLQMNSLKPEDTAVYYCAARFGSATRYQTGYYWGQGTQVTVSS | high polyreactivity
QVQLVESGGGLVQAGGSLRLSCAASGSIFGANAMGWYRQAPGKERELVAAISSGDSTYADSVKGRFTISRDNAKNTVYLQMNSLKPEDTAVYYCATCRYGGQGYPFYYWGQGTQVTVSS | low polyreactivity
QVQLVESGGGLVQAGGSLRLSCAASGSIFGANTMGWYRQAPGKERELVAGITSGARTYYADSVKGRFTISRDNAKNTVYLQMNSLKPEDTAVYYCAADTWKVFGVDYWGQGTQVTVSS | high polyreactivity
QVQLVESGGGLVQAGGSLRLSCAASGSIFGAYAMGSYRQAPGKERELVASISDGGGTYYADSVKGRFTISRDNAKNTVYLQMNSLKPEDTAVYYCAADPPKRVPGGYWGQGTQVTVSS | low polyreactivity
QVQLVESGGGLVQAGGSLRLSCAASGSIFGAYDMGWSRQAPGKERELVASITSGDSTNYADSVTGRFTISRDNAKNTVYLQMNSLKPEDTAVYYCAADLAVAVAADYDSWGQGTQVTVSS | low polyreactivity
QVQLVESGGGLVQAGGSLRLSCAASGSIFGAYGMGWYRQAPGKEREFVAAITGRGSTTYYADSVKGRFTISRDNAKNTVYLQMTSLKPEDTAVYYCNTRYRGLYHYPMGSWGQGTQVTVSS | high polyreactivity
QVQLVESGGGLVQAGGSLRLSCAASGSIFGAYTMGWYRQAPGKERELVAAISIGGSTNYADSVKGRFTISRDNAKNTVYLQMNSLKPEDTAVYYCAAYRQANRYGGEDYWGLGTQVTVSS | high polyreactivity
QVQLVESGGGLVQAGGSLRLSCAASGSIFGAYTMGWYRQAPGKERELVAAITGGGITNYADSVKGRFTISRDNAKNTVYLQMNSLKPEDTAVYYCNAGYPPQTVVVGYDYWGQGTQVTVSS | low polyreactivity
QVQLVESGGGLVQAGGSLRLSCAASGSIFGDNVMGWYRPAPGKERELVAAISRSGGSTYYADSVKGRFTISRDNAKNTVYVEMNSLIPEDSSVYYCAARYWSWRSFKVDYWGQGTQVTVSS | high polyreactivity
QVQLVESGGGLVQAGGSLRLSCAASGSIFGEYAMGWYRQAPGKERELVAGITSDGSTNYADSVKGRFTISRDNAKNTVYLQMNSLKQEDTAVYYCAAAGYVYHWAPRGSRYYYWGQGTQVTVSS | low polyreactivity
QVQLVESGGGLVQAGGSLRLSCAASGSIFGFNALGWYRQAPGKERELVAAINNGGSTNYADSVKGRFTISRDNATNTVYLQMNSLKPEDTAVYYCAARLNYIRRGYWGQGTQVTVSS | high polyreactivity
QVQLVESGGGLVQAGGSLRLSCAASGSIFGFNAMGWYRQAPGKERELVAAINNGGSTNYADSVKGRFTISRDNAKNTVYLQMNSLKPEDTAVYYCAARLNYIRRGYWGQGTQVTVSS | high polyreactivity
QVQLVESGGGLVQAGGSLRLSCAASGSIFGFNAMGWYRQAPGKERELVAAISGRGTGTYYADSVKGRFTISRDNAKNTVYLQMNSLKPEDTAVYYCYTYYYWGQGTQVTVSS | high polyreactivity
